Measured values from patent publication US10434074B2, “Peptide and small molecule agonists of EPHA and uses thereof” (CASE WESTERN RESERVE UNIVERSITY, priority 2004, dated 2019).

What was measured:
DU-145 cells = assay: HGF/SF-induced cell scattering / EMT; type: cell-based, human
Experimental: FIGS. 4(A-B) illustrate EphA activation attenuated cell scattering induced by HGF/SF. DU-145 cells were cultured in the presence of indicated reagents. Cell morphology was recorded 24 and 48 hours after the initiation of treatments (A). Numbers of total cells and cells without contact with other cells were counted in 6-8 randomly chosen fields (B). * HGF/SF/Fc vs. HGF/SF/ephrinA1-Fc: p<10^−5.
Tumor cells scattering/detaching from primary tumors is considered as the first step in tumor metastasis. In addition to promoting cell migration and invasion, HGF/SF is known to disrupt cell-cell adhesion mediated by E-cadherin, induce epithelial-mesenchymal transition (EMT) and cause cell scattering. Therefore, we examined the effects of EphA2 activation on EMT and scattering induced by HGF/SF. DU-145 cells were treated with Fc (control) or ephrin-A1-Fc in the presence or absence of HGF/SF. Cell morphology was recorded 24 and 48 hours after the addition of stimuli (FIGS. 4A and B). In control Fc-treated cells, only about 5% of cells were found as individual cells with no direct contact with neighboring cells, while remaining cells aggregate to form colonies with typical epithelial morphology. […] Following 24 hour HGF treatment, most of cells underwent EMT characterized by detachment from each other and transformation into spindle-shaped fibroblastic morphology. […]

GFP-PC-3 cells = assay: PC3 xenograft growth in nude mice; type: in vivo; design: s.c. tumor growth: dose or concentration left out as unconfirmed
Excerpt: Frozen sections were stained with biotinylated rabbit anti-human Fc, and HRP-conjugated streptoavidin.

[1] = tested on: integrin-mediated cell adhesion; assay: Integrin-mediated cell adhesion to fibronectin; type: cell-based
EphA2 = EphA2 (Homo sapiens, UniProt P29317); assay: EphA2 activation and ERK status in DU-145 cells; type: cell-based; design: endogenous in cells; host or cells: DU-145 cells
Experimental: FIGS. 1(A-D) illustrate (A) EphA2 is the primary EphA kinase expressed on human prostate cancer cells. Cell surface proteins were labeled with membrane impermeable biotin (Method). Top panel: Saturating amount of ephrin-A1-Fc (EA1-Fc) was used to precipitate most EphA kinases. Lower panel: EphA2 was first immunodepleted from cell lysates with an EphA2-specific antibody. Saturating amount of ephrin-A1-Fc was then added to the EphA2-depleted cell lysates to precipitate other members of EphA kinases. The precipitates were subject immunoblot with HRP-labeled avidin. (B) Expression of EphA2, but not other EphA kinases and ephrin-As, is elevated in cell lines derived from more malignant prostate cancer. Total cellular proteins were immunoblotted with the indicated antibodies. (C) Immunofluorescence staining of EphA2. Human prostate cancer cells grown on cover slip were stained with anti-EphA2 antibody. Texas-Red labeled secondary was used to visualize the bound primary antibody. […] To determine the ERK activation status, total cell lysates were analyzed by immunoblot using anti-phospho ERK (p-ERK) antibody. […]
Cells cultured in 6 well plates at 70-80% confluence were stimulated with 0.5 μg/ml Fc, 1 μg/ml epnrinA1-Fc or 20 ng/ml HGF/SF or their combinations as indicated. […] For quantitative analysis, band densities were measured using KODAK 1D imagine analysis software (Eastman Kodak Company).

Sequence of EphA2 (P29317 24-976): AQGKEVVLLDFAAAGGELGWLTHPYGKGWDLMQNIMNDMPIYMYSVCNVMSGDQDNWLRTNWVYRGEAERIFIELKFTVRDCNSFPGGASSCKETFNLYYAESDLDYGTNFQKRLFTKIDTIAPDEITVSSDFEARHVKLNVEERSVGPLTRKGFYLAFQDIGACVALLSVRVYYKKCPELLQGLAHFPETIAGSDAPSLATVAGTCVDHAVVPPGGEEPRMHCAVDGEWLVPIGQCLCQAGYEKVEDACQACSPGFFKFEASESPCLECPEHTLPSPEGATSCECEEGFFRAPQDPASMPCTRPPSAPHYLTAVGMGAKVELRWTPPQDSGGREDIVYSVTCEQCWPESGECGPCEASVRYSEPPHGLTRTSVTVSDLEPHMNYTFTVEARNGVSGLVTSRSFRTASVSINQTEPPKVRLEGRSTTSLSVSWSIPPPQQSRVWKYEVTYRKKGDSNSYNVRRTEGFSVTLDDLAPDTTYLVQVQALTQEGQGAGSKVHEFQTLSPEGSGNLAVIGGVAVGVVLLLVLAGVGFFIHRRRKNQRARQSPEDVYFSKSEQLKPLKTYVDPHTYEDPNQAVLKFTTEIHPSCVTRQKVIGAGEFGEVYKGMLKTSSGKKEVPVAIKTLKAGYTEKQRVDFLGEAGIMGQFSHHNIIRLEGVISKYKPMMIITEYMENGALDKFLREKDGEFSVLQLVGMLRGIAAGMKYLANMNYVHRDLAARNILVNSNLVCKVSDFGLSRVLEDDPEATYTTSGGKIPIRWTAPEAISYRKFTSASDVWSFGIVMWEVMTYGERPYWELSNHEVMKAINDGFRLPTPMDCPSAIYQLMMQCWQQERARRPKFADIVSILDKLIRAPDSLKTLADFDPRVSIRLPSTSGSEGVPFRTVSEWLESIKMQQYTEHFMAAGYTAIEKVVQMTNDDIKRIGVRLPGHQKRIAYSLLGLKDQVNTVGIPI

ERK1/2 activity (EphA2): reduced | EphA2 activation, time course (EphA2): readily occurred in two minutes
B1: ephrin-A1-Fc: ephrin-A1 dimerized by fusion to the heavy chain of human IgG1 (protein)
chain: DRHTVFWNSSNPKFRNEDYTIHVQLNDYVDIICPHYEDHSVADAAMEQYILYLVEHEEYQLCQPQSKDQVRWQCNRPSAKHGPEKLSEKFQRFTPFTLGKEFKEGHSYYYISKPIHQHEDRCLRLKVTVSGKITHSPQAHDNPQEKRLAADDPEVRVLHSIGHS
modifications: left off: a dimerising Fc or GST
notes: ephrin-A1 dimerized by fusion to the heavy chain of human IgG1
fraction of scattered cells (DU-145 cells; 24 hour HGF treatment, 95% with HGF and Fc): 15% | cell morphology (DU-145 cells; without HGF/SF): more compact cobblestone morphology | targeting to tumors (GFP-PC-3 cells; frozen sections stained with anti-human Fc): target to GFP-PC-3 tumors | tumor growth after three weeks of treatment (GFP-PC-3 cells; i.p.): lack of effects after three weeks of treatment | s.c. tumor growth (GFP-PC-3 cells; i.p., vs human IgG): inhibited s.c. tumor growth | effect of ligand clustering on inhibition of cell adhesion to fibronectin [1]: did not increase the inhibitory effects
